According to patent US20180273622A1 (published 2018):
Residue numbers refer to the chain shown, from its start. Blank lines part the entries; values can stand above or below the binder they belong to.

Target: human CD3 (human, UniProt P07766 23-207; P09693 23-182; P04234 22-171; P20963 22-164)
Test: flow cytometry, Jurkat T cells

human CD3, sequence (P07766 23-207, chain 1 of 4): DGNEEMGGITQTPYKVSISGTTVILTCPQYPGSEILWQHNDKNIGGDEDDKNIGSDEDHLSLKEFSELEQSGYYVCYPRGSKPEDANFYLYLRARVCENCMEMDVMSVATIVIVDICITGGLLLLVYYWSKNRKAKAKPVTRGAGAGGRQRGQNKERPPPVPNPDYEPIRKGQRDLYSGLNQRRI
human CD3, sequence (P09693 23-182, chain 2 of 4): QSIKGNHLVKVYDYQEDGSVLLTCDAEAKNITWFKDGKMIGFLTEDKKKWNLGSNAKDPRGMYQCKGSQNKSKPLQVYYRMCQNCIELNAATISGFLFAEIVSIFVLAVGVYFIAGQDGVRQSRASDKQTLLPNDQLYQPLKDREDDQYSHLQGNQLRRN
human CD3, sequence (P04234 22-171, chain 3 of 4): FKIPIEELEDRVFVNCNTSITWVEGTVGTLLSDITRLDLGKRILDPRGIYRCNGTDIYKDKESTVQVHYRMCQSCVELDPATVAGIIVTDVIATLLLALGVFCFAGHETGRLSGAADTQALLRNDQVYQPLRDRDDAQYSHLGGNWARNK
human CD3, sequence (P20963 22-164, chain 4 of 4): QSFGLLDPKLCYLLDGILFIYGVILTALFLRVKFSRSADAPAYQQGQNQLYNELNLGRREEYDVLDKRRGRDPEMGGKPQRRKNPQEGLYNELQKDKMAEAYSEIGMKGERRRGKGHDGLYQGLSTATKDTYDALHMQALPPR

EC50: 1.7 nM
B1: Fc DRA222 (TSC311 or TSC312) (Fc fusion)
chain: EPKSSDKTHTCPPCPAPEAAGAPSVFLFPPKPKDTLMISRTPEVTCVVVDVSHEDPEVKFNWYVDGVEVHNAKTKPREEQYNSTYRVVSVLTVLHQDWLNGKAYACAVSNKALPAPIEKTISKAKGQPREPQVYTLPPSRDELTKNQVSLTCLVKGFYPSDIAVEWESNGQPENNYKTTPPVLDSDGSFFLYSKLTVDKSRWQQGNVFSCSVMHEALHNHYTQKSLSLSPGQRHNNSSLNTGTQMAGHSPNSQVQLVESGGGVVQPGRSLRLSCKASGYTFTRSTMHWVRQAPGQGLEWIGYINPSSAYTNYNQKFKDRFTISADKSKSTAFLQMDSLRPEDTGVYFCARPQVHYDYNGFPYWGQGTPVTVSSGGGGSGGGGSGGGGSAQDIQMTQSPSSLSASVGDRVTMTCSASSSVSYMNWYQQKPGKAPKRWIYDSSKLASGVPARFSGSGSGTDYTLTISSLQPEDFATYYCQQWSRNPPTFGGGTKLQITSSS

EC50: 1.3 nM
B2: Fc H8L1 (TSC316) (Fc fusion)
chain: EPKSSDKTHTCPPCPAPEAAGAPSVFLFPPKPKDTLMISRTPEVTCVVVDVSHEDPEVKFNWYVDGVEVHNAKTKPREEQYNSTYRVVSVLTVLHQDWLNGKAYACAVSNKALPAPIEKTISKAKGQPREPQVYTLPPSRDELTKNQVSLTCLVKGFYPSDIAVEWESNGQPENNYKTTPPVLDSDGSFFLYSKLTVDKSRWQQGNVFSCSVMHEALHNHYTQKSLSLSPGQRHNNSSLNTGTQMAGHSPNSQVQLVQSGAEVKKPGASVKVSCKASGYTFTRSTMHWVRQAPGQGLEWMGYINPSSAYTNYNQKFKDRVTMTRDTSTSTVYMELSSLRSEDTAVYYCARPQVHYDYNGFPYWGQGTLVTVSSGGGGSGGGGSGGGGSGGGGSDIQMTQSPSSLSASVGDRVTMTCSASSSVSYMNWYQQKPGKAPKRWIYDSSKLASGVPARFSGSGSGTDYTLTISSLQPEDFATYYCQQWSRNPPTFGGGTKLQITSSS

EC50: 0.87 nM
B3: Fc H7L1 (TSC313) (Fc fusion)
chain: B2 chain with T328I, V331A, S337R, E341D
